Target: T1, refolded IL-7Rα ectodomain (human, UniProt P16871-1 21-239)
T1 construct: extracellular fragment of human IL-7Rα, NP_002176.2, residues 21-239; His tag removed with thrombin; also called IL-7Rα ectodomain (E. coli); not shown: His6, N-terminal, cleaved
T1 sequence (looked up): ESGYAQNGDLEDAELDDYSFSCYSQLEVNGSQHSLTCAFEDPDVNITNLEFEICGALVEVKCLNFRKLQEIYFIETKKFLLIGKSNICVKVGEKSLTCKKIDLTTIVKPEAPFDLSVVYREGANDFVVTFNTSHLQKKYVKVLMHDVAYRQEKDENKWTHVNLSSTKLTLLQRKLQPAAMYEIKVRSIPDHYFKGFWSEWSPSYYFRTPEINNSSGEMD
Assay: crystal structure; TSLP^Δ127–131:TSLPR^N47Q:IL-7Rα complex; 0.02 M citric acid, 0.08 M BIS-TRIS propane pH 8.8, 16% PEG 3,350, 293 K; 2.55 Å
Conditions: both partners purified

- binding result: binds
B1: TSLPR^N47Q (domain or fragment, human, UniProt Q9HC73-1 23-221, looked up)
chain: QGGAAEGVQIQIIYFNLETVQVTWQASKYSRTNLTFHYRFNGDEAYDQCTNYLLQEGHTSGCLLDAEQRDDILYFSIRNGTHPVFTASRWMVYYLKPSSPKHVRFSWHQDAVTVTCSDLSYGDLLYEVQYRSPFDTEWQSKQENTCNVTIEGLDAEKCYSFWVRVKAMEDVYGPDTYPSDWSEVTCWQRGEIRDACAET
notes: signal peptide in the construct; extracellular fragment of human TSLPR, NP_071431.2, residues 1-221, N-glycosylation mutant N47Q; also called EndoH-treated TSLPR^N47Q

From paper PMC5382266 (Nature Communications, 2017)
